Assay results: patent publication US11180789B2, “Method for bioconversion of mogroside extracts into siamenoside I” (National Taiwan University, priority 2019, dated 2021)
Values belong to the molecule of their own block, whether it stands above or below them.

Tests used:
[1] = relative to 5% sucrose in water; cited from earlier work
[2] = molecular target: T1, recombinant ScExg1 (rScExg1), Exg1p of Saccharomyces cerevisiae (Saccharomyces cerevisiae, UniProt P23776); assay: Enzyme kinetics of recombinant ScExg1 on oNPG and pNPG substrates (β-glucosidase activity); format: biochemical; conditions: pNP/oNP release at 405 nm
T1 sequence (P23776 41-448): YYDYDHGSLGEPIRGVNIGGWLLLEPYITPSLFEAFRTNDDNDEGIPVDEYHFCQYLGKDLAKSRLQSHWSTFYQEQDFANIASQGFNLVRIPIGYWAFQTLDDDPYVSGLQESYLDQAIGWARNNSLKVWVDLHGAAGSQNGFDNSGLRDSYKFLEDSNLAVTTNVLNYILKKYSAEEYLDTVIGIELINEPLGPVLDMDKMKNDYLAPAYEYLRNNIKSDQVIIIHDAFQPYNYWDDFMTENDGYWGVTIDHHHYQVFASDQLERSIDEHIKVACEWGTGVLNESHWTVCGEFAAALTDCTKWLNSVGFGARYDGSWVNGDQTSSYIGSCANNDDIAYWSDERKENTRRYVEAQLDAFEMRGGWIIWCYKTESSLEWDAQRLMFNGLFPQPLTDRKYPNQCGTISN
Method: The optimal conditions for β-glucosidase activity were determined. The optimum pH was obtained by monitoring enzyme activity at a range of pH levels (from pH 3 to pH 9) in the reaction buffer. Incubation was carried out at 60° C. for 30 min. To analyze enzyme stability, the same buffer system and pH range were used, however, the reactions were performed at 4° C. for 1 h. The optimum temperature was determined in 20 mM acetate buffer at pH 5 in a range of temperatures from 20° C. to 90° C. For temperature stability analysis, β-glucosidase was extracted and activity was monitored following 1 h incubation in 20 mM acetate buffer, pH 5. […] The f-glucosidase activity was determined by measuring the levels of p-nitrophenol (pNP) or o-nitrophenol (oNP) released from pNPG or oNPG after the glucose was hydrolyzed by glucosidase. The released pNP or oNP was detected at a wavelength of 405 nm and calibrated with standard curves. […]
(§1) To evaluate the preferred pH, preferred temperature and hydrolyzing capability of rDbExg1, we used pNPG substrates and compared the results with ScExg1. rDbExg1 retained half of its activity over a pH range of 3.0 to 7.0 and was stable at pH 5.0-7.0. […] The Michaelis constant (Km) and maximum velocity (Vmax) of rDbExg1 and rScExg1 were also compared and calculated (Table 3). […]

[3] = β-Glucosidase activity, pH and temperature optimum and stability of recombinant Exg1 proteins on pNPG; format: biochemical
Method: (§2) The optimal conditions for β-glucosidase activity were determined. The optimum pH was obtained by monitoring enzyme activity at a range of pH levels (from pH 3 to pH 9) in the reaction buffer. Incubation was carried out at 60° C. for 30 min. To analyze enzyme stability, the same buffer system and pH range were used, however, the reactions were performed at 4° C. for 1 h. The optimum temperature was determined in 20 mM acetate buffer at pH 5 in a range of temperatures from 20° C. to 90° C. For temperature stability analysis, β-glucosidase was extracted and activity was monitored following 1 h incubation in 20 mM acetate buffer, pH 5. […] The enzyme and substrate mixture were incubated under optimum enzymatic reactions conditions of 60° C., pH 5. The f-glucosidase activity was determined by measuring the levels of p-nitrophenol (pNP) or o-nitrophenol (oNP) released from pNPG or oNPG after the glucose was hydrolyzed by glucosidase. The released pNP or oNP was detected at a wavelength of 405 nm and calibrated with standard curves. Mogroside conversion was stopped by the addition of one volume of pure methanol at specific time points. The converted products were then purified for HPLC-MS/MS analysis.

[4] = substrate: O=[N+]([O-])c1ccc(O[C@@H]2O[C@H](CO)[C@@H](O)[C@H](O)[C@H]2O)cc1; assay: Enzyme kinetics of recombinant ScExg1 on oNPG and pNPG substrates (β-glucosidase activity); format: biochemical, Saccharomyces cerevisiae; conditions: other: rScExg1; pNP/oNP release at 405 nm
Method: as §2
(§3) Because mogrosides are known to be hydrolyzed by Exg1p in S. cerevisiae (ScExg1), we hypothesized that an Exg1-like glucan-β-glucosidase in D. bruxellensis (DbExg1) might be responsible for the observed mogroside conversion. To test this hypothesis, DbExg1 was cloned with a galactose-induced promoter sequence and six-histidine tag (6×His) at the C-terminus of the gene. The plasmids were transformed and expressed in S. cerevisiae as previously described. […] The recombinant DbExg1 (termed rDbExg1) was purified by Ni^2+-affinity chromatography (data not shown).
(§4) To evaluate the preferred pH, preferred temperature and hydrolyzing capability of rDbExg1, we used pNPG substrates and compared the results with ScExg1. rDbExg1 retained half of its activity over a pH range of 3.0 to 7.0 and was stable at pH 5.0-7.0. The optimum pH was 5.0 in a sodium phosphate buffer system (FIG. 3C). […] The optimum temperature for rDbExg1 was 60° C. However, the enzyme only retained 40% of its activity after incubation at 60° C. for 30 min. […] (FIG. 3B). Both ScExg1 and rDbExg1 were stable at temperatures below 50° C. (FIGS. 3B and D). The Michaelis constant (Km) and maximum velocity (Vmax) of rDbExg1 and rScExg1 were also compared and calculated (Table 3).
(§5) Table 3: Kinetic parameters of recombinant DbExg1 and ScExg1 proteins on oNPG and pNPG substrates (4) Enzymatic Hydrolysis of Mogrosides

[5] = substrate: O=[N+]([O-])c1ccccc1O[C@@H]1O[C@H](CO)[C@@H](O)[C@H](O)[C@H]1O; assay: as above; format: biochemical, Saccharomyces cerevisiae; conditions: other: rScExg1; pNP/oNP release at 405 nm
Method: as §2, §3, §4, §5

[6] = substrate: O=[N+]([O-])c1ccc(O[C@@H]2O[C@H](CO)[C@@H](O)[C@H](O)[C@H]2O)cc1; assay: Enzyme kinetics of recombinant DbExg1 on oNPG and pNPG substrates (β-glucosidase activity); format: biochemical, Dekkera bruxellensis; conditions: other: rDbExg1, substrate 10 mM, acetate buffer, pH 5, 60° C., pNP/oNP release at 405 nm
Excerpt: Exg1-like β-glucosidase from Dekkera bruxellensis (DbExg1) was cloned with the Gateway cloning system. Briefly, the coding region of DbExg1 was first amplified by PCR. The forward primer was
underline indicates gene coding region). Genomic DNA extracted from D. bruxellensis was used as the template. Yeast expression vectors (pYES-DEST52) were further introduced to generate galactose-inducible plasmids carrying the correct DbExg1 sequence. The yeast vectors were then amplified and transformed into Exg1-deleted S. cerevisiae (exg1Δ mutants) for the galactose-induced DbExg1 protein expression assay. DbExg1 gene was also integrated into (exg1Δ mutants) with a GPD promoter. For protein purification, the culture media was concentrated with a 30 kDa MWCO (molecular weight cutoff) ultrafiltration membrane (Vivaspin 20, GE Co., Taipei, Taiwan). The extracellular protein concentrates were purified by Ni^2+-affinity chromatography. Protein homogeneity in each fraction was assessed by SDS-PAGE and silver staining.
as §2, with “analysis. […]” for “analysis.”
as §1

[7] = substrate: O=[N+]([O-])c1ccccc1O[C@@H]1O[C@H](CO)[C@@H](O)[C@H](O)[C@H]1O; assay: purified protein, by the assay type; conditions: other: rDbExg1, substrate 10 mM, acetate buffer, pH 5, 60° C., pNP/oNP release at 405 nm

Molecule: C[C@H](CC[C@@H](O[C@@H]1O[C@H](CO)[C@@H](O)[C@H](O)[C@H]1O[C@@H]1O[C@H](CO)[C@@H](O)[C@H](O)[C@H]1O)C(C)(C)O)[C@H]1CC[C@@]2(C)[C@H]3CC=C4[C@@H](CC[C@H](O[C@@H]5O[C@H](CO[C@@H]6O[C@H](CO)[C@@H](O)[C@H](O)[C@H]6O)[C@@H](O)[C@H](O)[C@H]5O)C4(C)C)[C@]3(C)[C@H](O)C[C@]12C [MG IV, mogroside IV]
times sweeter than 5% sucrose [1]: 465 times

Molecule: C[C@H](CC[C@@H](O[C@@H]1O[C@H](CO[C@@H]2O[C@H](CO)[C@@H](O)[C@H](O)[C@H]2O)[C@@H](O)[C@H](O)[C@H]1O[C@@H]1O[C@H](CO)[C@@H](O)[C@H](O)[C@H]1O)C(C)(C)O)[C@H]1CC[C@@]2(C)[C@@H]3CC=C4[C@@H](CC[C@H](O[C@@H]5O[C@H](CO)[C@@H](O)[C@H](O)[C@H]5O)C4(C)C)[C@]3(C)[C@H](O)C[C@]12C [SI, siamenoside I]
times sweeter than 5% sucrose [1]: 563 times

Kcat [2]: 0.458 ± 0.012 s⁻¹
Vmax [2]: 9.16 ± 0.247 µmol/min/mg
Molecule: O=[N+]([O-])c1ccccc1O[C@@H]1O[C@H](CO)[C@@H](O)[C@H](O)[C@H]1O [o NPG, o-nitrophenol β-D-glucoside]

Molecule: C[C@H](CC[C@@H](O[C@@H]1O[C@H](CO[C@@H]2O[C@H](CO)[C@@H](O)[C@H](O)[C@H]2O)[C@@H](O)[C@H](O)[C@H]1O[C@@H]1O[C@H](CO)[C@@H](O)[C@H](O)[C@H]1O)C(C)(C)O)[C@H]1CC[C@@]2(C)[C@@H]3CC=C4[C@@H](CC[C@H](O[C@@H]5O[C@H](CO[C@@H]6O[C@H](CO)[C@@H](O)[C@H](O)[C@H]6O)[C@@H](O)[C@H](O)[C@H]5O)C4(C)C)[C@]3(C)[C@H](O)C[C@]12C [MG V, mogroside V]
times sweeter than 5% sucrose [1]: 392 times

Molecule: C[C@H](CC[C@@H](O[C@@H]1O[C@H](CO)[C@@H](O)[C@H](O)[C@H]1O[C@@H]1O[C@H](CO)[C@@H](O)[C@H](O)[C@H]1O)C(C)(C)O)[C@H]1CC[C@@]2(C)[C@@H]3CC=C4[C@@H](CC[C@H](O[C@@H]5O[C@H](CO)[C@@H](O)[C@H](O)[C@H]5O)C4(C)C)[C@]3(C)[C@H](O)C[C@]12C [MG IIIE, mogroside III E]
times sweeter than 5% sucrose [1]: less sweet

B1: recombinant ScExg1 (rScExg1), Exg1p of Saccharomyces cerevisiae (Saccharomyces cerevisiae S288C) (protein)
chain: YYDYDHGSLGEPIRGVNIGGWLLLEPYITPSLFEAFRTNDDNDEGIPVDEYHFCQYLGKDLAKSRLQSHWSTFYQEQDFANIASQGFNLVRIPIGYWAFQTLDDDPYVSGLQESYLDQAIGWARNNSLKVWVDLHGAAGSQNGFDNSGLRDSYKFLEDSNLAVTTNVLNYILKKYSAEEYLDTVIGIELINEPLGPVLDMDKMKNDYLAPAYEYLRNNIKSDQVIIIHDAFQPYNYWDDFMTENDGYWGVTIDHHHYQVFASDQLERSIDEHIKVACEWGTGVLNESHWTVCGEFAAALTDCTKWLNSVGFGARYDGSWVNGDQTSSYIGSCANNDDIAYWSDERKENTRRYVEAQLDAFEMRGGWIIWCYKTESSLEWDAQRLMFNGLFPQPLTDRKYPNQCGTISN
optimum temperature [3]: 50 °C
Km [4]: 865 ± 3 µM
Vmax [4]: 11.7 µmol/min/mg
kcat [4]: 0.587 ± 0.018 s⁻¹
kcat/Km [4]: 679 ± 5 M⁻¹ s⁻¹
Km [5]: 840 ± 42 µM

B2: recombinant DbExg1 (rDbExg1), Exg1-like β-glucosidase from Dekkera bruxellensis, C-terminal 6xHis (Brettanomyces bruxellensis) (protein)
chain: APIILKKRDWDYTKDKIHGVNIGGWLVLEPYITPSLFETFGDDAPVDEYHYTQQLGKEEASKRLQEHWANWITEKDFEYIANLGLNMVRIPIGYWAFELQDNDPYVQGQQAYLDKALGWAEKNGLKVWIDLHGVPGSQNGFDNSGLRDQIDWQTGSGNVDFTLNVLKEMIEKYSDSDYSDTIIGIELLNEPLGSSLNMDELKVFYSSGYELVRDQDASVPVIIQDAFQSDYYWDDFLNTEQDTNIYGVVVDHHHYQVFSTGELQRDMDTRIQTACNWGKQEGGEYHWNVCGEFSAALTDCAKWLNGLGRGARYDSSYGGGAYVGSCDDLYTYDEDYWNNSDVIKQYRQYVEAQMDAFENGKMGGWVFWCWKTESAVEWDFQRLAGLNVIPQPLDDRLYPNQCSF
Km [6]: 734 ± 2 µM
Vmax [6]: 9.27 µmol/min/mg
kcat [6]: 0.464 ± 0.006 s⁻¹
kcat/Km [6]: 632 ± 7 M⁻¹ s⁻¹
Km [7]: 781 ± 4 µM
Vmax [7]: 10.4 µmol/min/mg
kcat [7]: 0.518 s⁻¹
kcat/Km [7]: 663 M⁻¹ s⁻¹
